According to patent US20230087378A1 (UCB, published 2023):
Where a chain is given by its changes, count along the chain named. Where “and” joins values, the source holds several entries; their conditions need not be identical. Equal values may be shown once.

Experiments:
Human IL-13 [1] = target: T1, Human IL-13 (human, UniProt P35225 35-146); assay: cell-based or functional assay
Human IL-17A [2] = target: T2, Human IL-17A (human, UniProt Q16552 24-155); assay: cell-based or functional assay
Human IL-17F [3] = target: T3, Human IL-17F (human, UniProt Q96PD4 31-163); assay: cell-based or functional assay
T3 sequence (looked up): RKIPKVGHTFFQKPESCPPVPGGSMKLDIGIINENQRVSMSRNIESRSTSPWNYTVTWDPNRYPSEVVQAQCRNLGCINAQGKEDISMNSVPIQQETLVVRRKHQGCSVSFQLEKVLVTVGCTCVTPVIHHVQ

Human IL-17A [4] = target: T2, Human IL-17A; assay: SPR (Biacore T200), antibody captured on anti-human F(ab')2, human IL-17A as analyte, 25 C, 1:1 model
Method: (§1) A goat anti-human IgG, F(ab′)₂ fragment specific antibody (Jackson ImmunoResearch) was immobilised on a CM5 Sensor Chip via amine coupling chemistry to a level of approximately 5000 RU. […] At the end of each cycle the surface was regenerated at a flowrate of 10 μl/min using a 60 s injection of 50 mM HCl followed by a 30 s injection of 5 mM NaOH and a final 60 s injection of 50 mM HCl. […] Buffer blank injections were included to subtract instrument noise and drift.
(§2) Kinetic parameters were determined using a 1:1 binding model using Biacore T200 Evaluation software (version 3.0).

Cyno IL-17A [5] = target: T4, Cyno IL-17A (cynomolgus, UniProt A0A2K5TTB0 24-155); assay: cell-based or functional assay
Human IL-17A [6] = target: T2, Human IL-17A; assay: cell-based or functional assay; remark: listed apart in the source
Human IL-17F [7] = target: T3, Human IL-17F; assay: cell-based or functional assay; remark: listed apart in the source
Cyno IL-17F [8] = target: T5, Cyno IL-17F (cynomolgus, UniProt G7P4V0 31-163); assay: cell-based or functional assay
T5 sequence: T3 sequence (looked up) with G22E, I29T, R73K, N74H, V100L, I129V

Cyno IL-17AF = target: T6, Cyno IL-17AF (cynomolgus, UniProt A0A2K5TTB0 24-155; G7P4V0 31-163); assay: SPR (Biacore T200), antibody captured on anti-human F(ab')2, analyte in solution, 25 C, 1:1 model
T6 construct: also called Cynomolgus IL-17AF
Excerpt: (§3) A goat anti-human IgG, F(ab′)₂ fragment specific antibody (Jackson ImmunoResearch) was immobilised on a CM5 Sensor Chip via amine coupling chemistry to a level of approximately 5000 RU. […] Buffer blank injections were included to subtract instrument noise and drift.

Cyno albumin = target: T7, Cyno albumin (cynomolgus, UniProt A2V9Z4 25-608); assay: as above
T7 construct: also called Cynomolgus albumin
Excerpt: as §3

Cyno IL-17A [9] = target: T4, Cyno IL-17A; assay: as above
Excerpt: as §3

Human IL-17AF = target: T8, Human IL-17AF (human, UniProt Q16552 24-155; Q96PD4 31-163); assay: as above
T8 construct: also called IL-17A/F heterodimer
Excerpt: as §3

Cyno IL-13 = target: T9, Cyno IL-13 (cynomolgus, UniProt Q0PW92 21-132); assay: as above
T9 construct: also called Cynomolgus IL-13
Excerpt: as §3

Human IL-13 [10] = target: T1, Human IL-13; assay: as above
Excerpt: as §3

Human albumin = target: T10, Human albumin (human, UniProt P02768 25-609); assay: as above
T10 construct: also called human serum albumin
Excerpt: as §3

Human IL-17A [11] = target: T2, Human IL-17A; assay: as above
Excerpt: as §3

Human IL-17F [12] = target: T3, Human IL-17F; assay: as above
Excerpt: as §3

Cyno IL-17F [13] = target: T5, Cyno IL-17F; assay: as above
Excerpt: as §3

[14] = target: mixture of human IL-17A, IL-13 and albumin (human); assay: SPR, response of the human mixture against the sum of the single-analyte responses
Human IL-13 [15] = target: T1, Human IL-13; assay: SPR (Biacore T200), antibody captured on anti-human F(ab')2, human IL-13 as analyte, 25 C, 1:1 model
Method: as §1, §2

Human IL-13 [16] = target: T1, Human IL-13; assay: cell-based or functional assay; remark: listed apart in the source
[17] = target: mixture of human IL-17A, IL-13 and albumin (human); assay: SPR, mixture of human IL-13, IL-17A and albumin injected together over captured antibody
Human IL-17F [18] = target: T3, Human IL-17F; assay: SPR (Biacore T200), antibody captured on anti-human F(ab')2, human IL-17F as analyte, 25 C, 1:1 model
Method: as §1, §2

[19] = target: mixture of human IL-17A, IL-13 and albumin (human); assay: SPR, response of the human mixture against the sum of the single-analyte responses, mean of n = 3
[20] = target: mixture of cynomolgus IL-17A, IL-13 and albumin (cynomolgus); assay: SPR, response of the cynomolgus mixture against the sum of the single-analyte responses, mean of n = 3
[21] = target: mixture of cynomolgus IL-17A, IL-13 and albumin (cynomolgus); assay: SPR, response of the cynomolgus mixture against the sum of the single-analyte responses
[22] = target: mixture of cynomolgus IL-17A, IL-13 and albumin (cynomolgus); assay: SPR, mixture of cynomolgus IL-13, IL-17A and albumin injected together over captured antibody

B1: IL-13/IL-17AF multi-specific antibody (bispecific antibody)
heavy: EVQLVESGGGLVQPGGSLRLSCAASGFTFSDYNMAWVRQAPGKGLEWVATITYEGRNTYYRDSVKGRFTISRDNAKNSLYLQMNSLRAEDTAVYYCASPPQYYEGSIYRLWFAHWGQGTLVTVSSASTKGPSVFPLAPSSKSTSGGTAALGCLVKDYFPEPVTVSWNSGALTSGVHTFPAVLQSSGLYSLSSVVTVPSSSLGTQTYICNVNHKPSNTKVDKKVEPKSCSGGGGTGGGGSEVQLLESGGGLVQPGGSLRLSCAVSGIDLSNYAINWVRQAPGKCLEWIGIIWASGTTFYATWAKGRFTISRDNSKNTVYLQMNSLRAEDTAVYYCARTVPGYSTAPYFDLWGQGTLVTVSSGGGGSGGGGSGGGGSGGGGSDIQMTQSPSSVSASVGDRVTITCQSSPSVWSNFLSWYQQKPGKAPKLLIYEASKLTSGVPSRFSGSGSGTDFTLTISSLQPEDFATYYCGGGYSSISDTTFGCGTKVEIKRT
light: AIQLTQSPSSLSASVGDRVTITCRADESVRTLMHWYQQKPGKAPKLLIYLVSNSEIGVPDRFSGSGSGTDFRLTISSLQPEDFATYYCQQTWSDPWTFGQGTKVEIKRTVAAPSVFIFPPSDEQLKSGTASVVCLLNNFYPREAKVQWKVDNALQSGNSQESVTEQDSKDSTYSLSSTLTLSKADYEKHKVYACEVTHQGLSSPVTKSFNRGECSGGGGSGGGGSEVQLVQSGAEVKKPGSSVKVSCKASGYSFTSYYIHWVRQAPGQCLEWMGRIGPGSGDINYNEKFKGRATFTVDKSTSTAYMELSSLRSEDTAVYYCARFHYDGADWGQGTLVTVSSGGGGSGGGGSGGGGSGGGGSDIQMTQSPSSLSASVGDRVTITCKASQNINENLDWYQQKPGKAPKLLIYYTDILQTGIPSRFSGSGSGTDYTLTISSLQPEDFATYYCYQYYSGYTFGCGTKLEIKRT
notes: also called UCBXXXX; IL-17AF-IL-13 multi-specific antibody
inhibition of CXCL1 release from NHEK treated with a mixture of IL-13, IL-17A and IL-17F (Human IL-13 [1]): 81.3%
inhibition of CXCL1 release from NHEK treated with a mixture of IL-13, IL-17A and IL-17F (Human IL-17A [2]): 81.3%
inhibition of CXCL1 release from NHEK treated with a mixture of IL-13, IL-17A and IL-17F (Human IL-17F [3]): 81.3%
Kd (Human IL-17A [4]): 0.0082 nM
koff (Human IL-17A [4]): 3.45e-05 s⁻¹
kon (Human IL-17A [4]): 3.2e+06 M⁻¹ s⁻¹
IC50, inhibition of IL-6 release from nHDF stimulated with IL-17A and TNF-α (Cyno IL-17A [5]): 0.049 nM
IC50, inhibition of IL-6 release from nHDF stimulated with IL-17A and TNF-α (Human IL-17A [6]): 0.042 nM
IC50, inhibition of IL-6 release from nHDF stimulated with IL-17F and TNF-α (Human IL-17F [7]): 28 nM
IC50, inhibition of IL-6 release from nHDF stimulated with IL-17F and TNF-α (Cyno IL-17F [8]): 34.3 nM
Kd (Cyno IL-17AF): 0.014 nM
koff (Cyno IL-17AF): 2.87e-05 s⁻¹
kon (Cyno IL-17AF): 2.25e+06 M⁻¹ s⁻¹
Kd (Cyno albumin): 2.47 nM
koff (Cyno albumin): 0.000204 s⁻¹
kon (Cyno albumin): 81800 M⁻¹ s⁻¹
Kd (Cyno IL-17A [9]): 0.007 nM
koff (Cyno IL-17A [9]): 1.24e-05 s⁻¹
kon (Cyno IL-17A [9]): 1.65e+06 M⁻¹ s⁻¹
Kd (Human IL-17AF): 0.015 nM
koff (Human IL-17AF): 4.54e-05 s⁻¹
kon (Human IL-17AF): 3.7e+06 M⁻¹ s⁻¹
Kd (Cyno IL-13): 0.156 nM
koff (Cyno IL-13): 0.000148 s⁻¹
kon (Cyno IL-13): 948000 M⁻¹ s⁻¹
Kd (Human IL-13 [10]): 0.026 nM
koff (Human IL-13 [10]): 3.84e-05 s⁻¹
kon (Human IL-13 [10]): 1.46e+06 M⁻¹ s⁻¹
Kd (Human albumin): 2.51 nM
koff (Human albumin): 0.000154 s⁻¹
kon (Human albumin): 66500 M⁻¹ s⁻¹
Kd (Human IL-17A [11]): 0.009 nM
koff (Human IL-17A [11]): 1.57e-05 s⁻¹
kon (Human IL-17A [11]): 2.26e+06 M⁻¹ s⁻¹
Kd (Human IL-17F [12]): 0.128 nM
koff (Human IL-17F [12]): 0.000198 s⁻¹
kon (Human IL-17F [12]): 1.67e+06 M⁻¹ s⁻¹
Kd (Cyno IL-17F [13]): 0.283 nM
koff (Cyno IL-17F [13]): 0.000282 s⁻¹
kon (Cyno IL-17F [13]): 1.14e+06 M⁻¹ s⁻¹
Binding of Mixture as a Percentage of Individual Binding Responses (%), n = 1 [14]: 100%
Binding of Mixture as a Percentage of Individual Binding Responses (%), n = 2 [14]: 100%
Binding of Mixture as a Percentage of Individual Binding Responses (%), n = 3 [14]: 100%
Kd (Human IL-13 [15]): 0.0258 nM
koff (Human IL-13 [15]): 0.000111 s⁻¹
kon (Human IL-13 [15]): 3.61e+06 M⁻¹ s⁻¹
IC50 for inhibition of STAT6 signalling (HEK 293 Human IL4/IL-13 SEAP reporter cells) (Human IL-13 [16]): 4.12 pM and 0.412 ng/ml
Binding, n = 1 (RU) [17]: 81 RU
Binding, n = 2 (RU) [17]: 131 RU
Binding, n = 3 (RU) [17]: 129 RU
Kd (Human IL-17F [18]): 0.0821 nM
koff (Human IL-17F [18]): 0.000219 s⁻¹
kon (Human IL-17F [18]): 2.66e+06 M⁻¹ s⁻¹
Binding of Mixture as a Percentage of Individual Binding Responses (%), Mean [19]: 100%
Binding of Mixture as a Percentage of Individual Binding Responses (%), Mean [20]: 97%
Binding of Mixture as a Percentage of Individual Binding Responses (%), n = 1 [21]: 97%
Binding of Mixture as a Percentage of Individual Binding Responses (%), n = 2 [21]: 96%
Binding of Mixture as a Percentage of Individual Binding Responses (%), n = 3 [21]: 97%
Binding, n = 1 (RU) [22]: 146 RU
Binding, n = 2 (RU) [22]: 141 RU
Binding, n = 3 (RU) [22]: 145 RU
